Measured values: US20230365685A1
Blank lines part the entries; values can stand above or below the binder they belong to.

Experiments:
[1] = molecular target: biotinylated human TIM-3 (human) (UniProt Q8TDQ0); experiment: competition ELISA: antibody coated, biotinylated human TIM-3 preincubated with competitor 19D11
[2] = molecular target: biotinylated human TIM-3 (human) (UniProt Q8TDQ0); experiment: competition ELISA: antibody coated, biotinylated human TIM-3 preincubated with competitor TSR022
[3] = molecular target: biotinylated human TIM-3 (human) (UniProt Q8TDQ0); experiment: competition ELISA: antibody coated, biotinylated human TIM-3 preincubated with competitor 3E6
[4] = molecular target: biotinylated human TIM-3 (human) (UniProt Q8TDQ0); experiment: competition ELISA: antibody coated, biotinylated human TIM-3 preincubated with competitor CH 10#
[5] = molecular target: biotinylated human TIM-3 (human) (UniProt Q8TDQ0); experiment: competition ELISA: antibody coated, biotinylated human TIM-3 preincubated with competitor 16H1
[6] = molecular target: biotinylated human TIM-3 (human) (UniProt Q8TDQ0); experiment: competition ELISA: antibody coated, biotinylated human TIM-3 preincubated with competitor 4H2
[7] = molecular target: biotinylated human TIM-3 (human) (UniProt Q8TDQ0); experiment: competition ELISA: antibody coated, biotinylated human TIM-3 preincubated with competitor CH 11#
[8] = molecular target: biotinylated human TIM-3 (human) (UniProt Q8TDQ0); experiment: competition ELISA: antibody coated, biotinylated human TIM-3 preincubated with competitor MBG453

inhibit percentage [1]: 0% | inhibit percentage [2]: 100% | inhibit percentage [3]: 95.8% | inhibit percentage [4]: 40.5% | inhibit percentage [5]: 70.2% | inhibit percentage [6]: 98.1% | inhibit percentage [7]: 0% | inhibit percentage [8]: 99.1%
B1: TSR022 (antibody, INN chains, looked up, V domains shown)
VH: EVQLLESGGGLVQPGGSLRLSCAAASGFTFSSYDMSWVRQAPGKGLDWVSTISGGGTYTYYQDSVKGRFTISRDNSKNTLYLQMNSLRAEDTAVYYCASMDYWGQGTTVTVSS
VL: DIQMTQSPSSLSASVGDRVTITCRASQSIRRYLNWYHQKPGKAPKLLIYGASTLQSGVPSRFSGSGSGTDFTLTISSLQPEDFAVYYCQQSHSAPLTFGGGTKVEIK

inhibit percentage [1]: 4.39% | inhibit percentage [2]: 94.8% | inhibit percentage [3]: 94.3% | inhibit percentage [4]: 15.8% | inhibit percentage [5]: 99.2% | inhibit percentage [6]: 95.9% | inhibit percentage [7]: 8.29% | inhibit percentage [8]: 100%
B2: MBG453 (antibody, INN chains, looked up, V domains shown)
VH: QVQLVQSGAEVKKPGSSVKVSCKASGYTFTSYNMHWVRQAPGQGLEWMGDIYPGNGDTSYNQKFKGRVTITADKSTSTVYMELSSLRSEDTAVYYCARVGGAFPMDYWGQGTTVTVSS
VL: AIQLTQSPSSLSASVGDRVTITCRASESVEYYGTSLMQWYQQKPGKAPKLLIYAASNVESGVPSRFSGSGSGTDFTLTISSLQPEDFATYFCQQSRKDPSTFGGGTKVEIKR
